Data published in patent publication US20140303084.
Substitutions are numbered along the chain they refer to.

Experiments:
[1] = test system: T1, KLTALASYAWLF
T1 sequence: KLTALASYAWLF

[2] = test system: T2, KLT-HCy-LASYCWLF
T2 sequence: KLTXLASYCWLF

[3] = test system: T3, ALTCLASYCWLF
T3 sequence: ALTCLASYCWLF

[4] = test system: T4, KLTCLASYcWLF
T4 sequence: KLTCLASYCWLF

[5] = test system: T5, RRAPGKLT-Dab-LASY-Asp-WLFWTGIA-CONH2
T5 sequence: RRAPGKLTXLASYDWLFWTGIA

[6] = test system: T6, KLTCLASYCQLV
T6 sequence: KLTCLASYCQLV

[7] = test system: T7, RRAPGKLTCLASYCWLF QTGWA YWGYRQHPGS
T7 sequence: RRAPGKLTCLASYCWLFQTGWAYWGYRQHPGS

[8] = test system: T8, KLTCLASYCWAF
T8 sequence: KLTCLASYCWAF

[9] = test system: T9, SKQGRPISPDRRAAGKLTCLASYCWLFWTGIA-PEG2-K(PEG2-Biotin)
T9 sequence: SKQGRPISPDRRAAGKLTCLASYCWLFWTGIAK

[10] = test system: T10, KLTCLGSYCWLF
T10 sequence: KLTCLGSYCWLF

[11] = test system: T11, GSVRRALFVA ARAPA KLTCLASYCWLFWTGIA
T11 sequence: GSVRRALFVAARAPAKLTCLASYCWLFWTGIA

[12] = test system: T12, CRRAPGKLQCLASYCWLFWTGIAGGSGGC
T12 sequence: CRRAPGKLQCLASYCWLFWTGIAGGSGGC

[13] = test system: T13, KLT-Glu-LASY-Orn-WLF
T13 sequence: KLTELASYXWLF

[14] = test system: T14, KLTCLASYCALF
T14 sequence: KLTCLASYCALF

[15] = test system: T15, HLFGADWLGA RTAPG KLTCLASYCWLFWTGIA
T15 sequence: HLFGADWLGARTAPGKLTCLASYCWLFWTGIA

[16] = test system: T16, compound 25
T16 sequence: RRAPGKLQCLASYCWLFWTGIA

[17] = test system: T17, Palmitoyl-(PEG)27(PEG)27-KLTCLASYCWLF
T17 sequence: KLTCLASYCWLF

[18] = test system: T18, RRAPGKLT-Orn-LASY-Asp-WLFWTGIA-COOH
T18 sequence: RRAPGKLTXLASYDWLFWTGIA

[19] = test system: T19, RRAPGKLTCLASYCWLFWtGIA
T19 sequence: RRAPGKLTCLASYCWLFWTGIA

[20] = test system: T20, KLTcLASYCWLF
T20 sequence: KLTCLASYCWLF

[21] = test system: T21, RK(PEG2-Biotin)APGKLTCLASYCWLFWTGIA
T21 sequence: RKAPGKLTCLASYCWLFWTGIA

[22] = test system: T22, SKQGRPISPDrRAAGKLTCLASYCWLFWTGIA-PEG4-C(N-PEG5k maleimide)
T22 sequence: T9 sequence with K33C

[23] = test system: T23, RRAPGKLTCLASYCWLF STPVA RKSLRRHQPT
T23 sequence: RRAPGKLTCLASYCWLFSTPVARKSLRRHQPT

[24] = test system: T24, PRIRTSGPGSRSASGKLTCLASYCWLFWTGIA
T24 sequence: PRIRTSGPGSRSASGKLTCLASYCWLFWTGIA

[25] = test system: T25, RRAPGKLQCLASYCWLFWTGIAAAAGAP
T25 sequence: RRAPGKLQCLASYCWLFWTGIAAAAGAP

[26] = test system: T26, SRIrTVSPGSrSASGKSTCLASYCWLFWTGIA
T26 sequence: T24 sequence with P1S, S6V, G7S, L17S

[27] = test system: T27, RGRSAKLRCLASYCWLFFTVIL
T27 sequence: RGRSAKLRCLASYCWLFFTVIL

[28] = test system: T28, LYPRLYTPGS RRAYG KLTCLASYCWLFWTGIA
T28 sequence: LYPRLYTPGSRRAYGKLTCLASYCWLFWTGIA

[29] = test system: T29, PSGWAGWAPG RREPG KLTCLASYCWLFWTGIA
T29 sequence: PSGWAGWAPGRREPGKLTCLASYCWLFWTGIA

[30] = test system: T30, PRIRTVGPGSRSASGKLTCLASYCWLFLTGIA
T30 sequence: T24 sequence with S6V, W28L

[31] = test system: T31, KLT-Dab-LASY-Glu-WLF
T31 sequence: KLTXLASYEWLF

[32] = test system: T32, PQTRDPSSRD RRAPG KLTCLASYCWLFWTGIA
T32 sequence: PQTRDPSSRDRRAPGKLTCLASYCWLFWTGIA

[33] = test system: T33, RSTVSQMRCLASYCWLFPALVS
T33 sequence: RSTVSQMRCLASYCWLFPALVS

[34] = test system: T34, RRAPGKLTCLASYCWLF RTQIA TPESEYRQQA
T34 sequence: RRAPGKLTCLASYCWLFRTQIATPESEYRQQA

[35] = test system: T35, WVPQWKVTCLASCSRLFHGFDA
T35 sequence: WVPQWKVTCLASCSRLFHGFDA

[36] = test system: T36, RRAPGKLTCLASYCWLFWTGIA-PEG4
T36 sequence: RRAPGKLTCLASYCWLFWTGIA

[37] = test system: T37, MAGMLKLTCFASYCGLFPLVSS
T37 sequence: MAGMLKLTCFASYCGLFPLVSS

[38] = test system: T38, HMQWGKLPCLASYCWLFWYGIG
T38 sequence: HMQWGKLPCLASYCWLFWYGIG

[39] = test system: T39, RRAPGKLT-Asp-LASY-Orn-WLFWTGIA-CONH2
T39 sequence: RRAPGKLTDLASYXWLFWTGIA

[40] = test system: T40, RRAPGKLTCLASYCWLF STGVA THANTTATAQ
T40 sequence: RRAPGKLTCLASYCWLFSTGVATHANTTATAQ

[41] = test system: T41, RRAPGKLQCLASYCWLFWT-Aib-IA
T41 sequence: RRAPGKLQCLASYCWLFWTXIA

[42] = test system: T42, SKQGRPISSDrRASGKLTCLASYCWLFWTGIA
T42 sequence: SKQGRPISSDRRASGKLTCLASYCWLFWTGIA

[43] = test system: T43, PRIRTVGPGSRSASGKLTCVASYCWLFWTGIA
T43 sequence: T24 sequence with S6V, L20V

[44] = test system: T44, k-MeLeu-TCLASFCWLF
T44 sequence: KLTCLASFCWLF

[45] = test system: T45, RRAPG-k-NMeLeu-TCLASYCWLFWTGIA
T45 sequence: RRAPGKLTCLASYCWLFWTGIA

[46] = test system: T46, Lys(palmitoyl)-PEG16-Lys(PEG2-Biotin)-PEG16-rRAPGKLTCLASYCWLFWTGIA
T46 sequence: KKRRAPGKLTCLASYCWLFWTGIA

[47] = test system: T47, KLTCLASYC
T47 sequence: KLTCLASYC

[48] = test system: T48, RRAPGKLT-Dab-LASY-Asp-WLFWTGIA-COOH
T48 sequence: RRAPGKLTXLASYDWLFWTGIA

[49] = test system: T49, KLTCLASYCWYF
T49 sequence: KLTCLASYCWYF

human Factor IXa
Vmax, FXa generation assay [1]: > 2
Vmax, FXa generation assay [2]: > 2
Vmax, FXa generation assay; (++) means 1-2 [3]: (++)
Vmax, FXa generation assay [4]: > 3
Vmax, FXa generation assay [5]: > 2
Vmax, FXa generation assay [6]: > 2
Vmax, FXa generation assay [7]: > 2
Vmax, FXa generation assay [8]: > 2
Vmax, FXa generation assay; (++) means 1-2 [9]: (++)
Vmax, FXa generation assay [10]: > 2
Vmax, FXa generation assay [11]: > 2
Vmax, FXa generation assay [12]: > 2
Vmax, FXa generation assay; (++) means 1-2 [13]: (++)
Vmax, FXa generation assay [14]: > 3
Vmax, FXa generation assay; (++) means 1-2 [15]: (++)
Vmax, FXa generation assay with hFIXa [16]: > 2
Vmax, FXa generation assay [17]: > 0.3
Vmax, FXa generation assay [18]: > 2
Vmax, FXa generation assay; (++) means 1-2 [19]: (++)
Vmax, FXa generation assay [20]: > 2
Vmax, FXa generation assay; (++) means 1-2 [21]: (++)
Vmax, FXa generation assay [22]: > 0.5
Vmax, FXa generation assay [23]: > 3
Vmax, FXa generation assay [24]: > 3
Vmax, FXa generation assay; (++) means 1-2 [25]: (++)
Vmax, FXa generation assay [26]: > 3
Vmax, FXa generation assay [27]: > 2
Vmax, FXa generation assay [28]: > 2
Vmax, FXa generation assay [29]: > 2
Vmax, FXa generation assay [30]: > 3
Vmax, FXa generation assay; (++) means 1-2 [31]: (++)
Vmax, FXa generation assay [32]: > 3
Vmax, FXa generation assay; (++) means 1-2 [33]: (++)
Vmax, FXa generation assay [34]: > 3
Vmax, FXa generation assay [35]: > 1.5
Vmax, FXa generation assay [36]: > 2
Vmax, FXa generation assay; (++) means 1-2 [37]: (++)
Vmax, FXa generation assay [38]: > 2
Vmax, FXa generation assay [39]: > 2
Vmax, FXa generation assay [40]: > 3
Vmax, FXa generation assay; (++) means 1-2 [41]: (++)
Vmax, FXa generation assay [42]: > 3
Vmax, FXa generation assay [43]: > 2
Vmax, FXa generation assay [44]: > 2
Vmax, FXa generation assay [45]: > 3
Vmax, FXa generation assay [46]: > 3
Vmax, FXa generation assay [47]: > 3
Vmax, FXa generation assay; (++) means 1-2 [48]: (++)
Vmax, FXa generation assay [49]: > 2
